Data: PMC12416549 (2024)
Substitutions are numbered along the chain they refer to. Numbers in names are those of the source.

B1: R13Q (designed binder)
chain: MTLQELLREEALQRAEAEAFRYALELLAEKFPEQKEYLLDLAEEIESQIRSLSGVDVEDVRKFLDKEWAWVKELLAEHPAELAEVEAARAARLAELRAEVEAKVAA
B2: A28Q (designed binder)
chain: B1 chain with Q13R, A28Q
B3: V71K (designed binder)
chain: B1 chain with Q13R, V71K
B4: E99L (designed binder)
chain: B1 chain with Q13R, E99L
B5: E95N (designed binder)
chain: B1 chain with Q13R, E95N
B6: E10P (designed binder)
chain: B1 chain with E10P, Q13R
B7: E101C (designed binder)
chain: B1 chain with Q13R, E101C
B8: L64K (designed binder)
chain: B1 chain with Q13R, L64K
B9: R13H (designed binder)
chain: B1 chain with Q13H
B10: A106P (designed binder)
chain: B1 chain with Q13R, A106P
B11: R97S (designed binder)
chain: B1 chain with Q13R, R97S
B12: V85D (designed binder)
chain: B1 chain with Q13R, V85D
B13: V57S (designed binder)
chain: B1 chain with Q13R, V57S
B14: E67P (designed binder)
chain: B1 chain with Q13R, E67P
B15: D40Y (designed binder)
chain: B1 chain with Q13R, D40Y
B16: S47Q (designed binder)
chain: B1 chain with Q13R, S47Q
B17: E10V (designed binder)
chain: B1 chain with E10V, Q13R
B18: E43Y (designed binder)
chain: B1 chain with Q13R, E43Y
B19: K72F (designed binder)
chain: B1 chain with Q13R, K72F
B20: E43H (designed binder)
chain: B1 chain with Q13R, E43H
B21: L26N (designed binder)
chain: B1 chain with Q13R, L26N
B22: E46D (designed binder)
chain: B1 chain with Q13R, E46D
B23: L12M (designed binder)
chain: B1 chain with L12M, Q13R
B24: A23N (designed binder)
chain: B1 chain with Q13R, A23N
B25: L41I (designed binder)
chain: B1 chain with Q13R, L41I
B26: Q34S (designed binder)
chain: B1 chain with Q13R, Q34S
B27: R89S (designed binder)
chain: B1 chain with Q13R, R89S
B28: Q34M (designed binder)
chain: B1 chain with Q13R, Q34M
B29: A90W (designed binder)
chain: B1 chain with Q13R, A90W
B30: A17V (designed binder)
chain: B1 chain with Q13R, A17V
B31: H78M (designed binder)
chain: B1 chain with Q13R, H78M
B32: V57N (designed binder)
chain: B1 chain with Q13R, V57N
B33: K35L (designed binder)
chain: B1 chain with Q13R, K35L
B34: K35N (designed binder)
chain: B1 chain with Q13R, K35N
B35: A87Y (designed binder)
chain: B1 chain with Q13R, A87Y
B36: L3G (designed binder)
chain: B1 chain with L3G, Q13R
B37: E5R (designed binder)
chain: B1 chain with E5R, Q13R
B38: D40K (designed binder)
chain: B1 chain with Q13R, D40K
B39: S51F (designed binder)
chain: B1 chain with Q13R, S51F
B40: S51R (designed binder)
chain: B1 chain with Q13R, S51R
B41: L52S (designed binder)
chain: B1 chain with Q13R, L52S
B42: V104P (designed binder)
chain: B1 chain with Q13R, V104P
B43: R21W (designed binder)
chain: B1 chain with Q13R, R21W
B44: D65P (designed binder)
chain: B1 chain with Q13R, D65P
B45: E44Q (designed binder)
chain: B1 chain with Q13R, E44Q
B46: R97E (designed binder)
chain: B1 chain with Q13R, R97E
B47: L96V (designed binder)
chain: B1 chain with Q13R, L96V
B48: E16W (designed binder)
chain: B1 chain with Q13R, E16W
B49: A11G (designed binder)
chain: B1 chain with A11G, Q13R
B50: L6A (designed binder)
chain: B1 chain with L6A, Q13R
B51: E18S (designed binder)
chain: B1 chain with Q13R, E18S
B52: F63V (designed binder)
chain: B1 chain with Q13R, F63V
B53: E18L (designed binder)
chain: B1 chain with Q13R, E18L
B54: L52C (designed binder)
chain: B1 chain with Q13R, L52C
B55: K30M (designed binder)
chain: B1 chain with Q13R, K30M
B56: A102G (designed binder)
chain: B1 chain with Q13R, A102G
B57: I45A (designed binder)
chain: B1 chain with Q13R, I45A
B58: L52P (designed binder)
chain: B1 chain with Q13R, L52P
B59: A19G (designed binder)
chain: B1 chain with Q13R, A19G

Molecular target: T1, TNFR1 (Homo sapiens, UniProt P19438)
T1 chain: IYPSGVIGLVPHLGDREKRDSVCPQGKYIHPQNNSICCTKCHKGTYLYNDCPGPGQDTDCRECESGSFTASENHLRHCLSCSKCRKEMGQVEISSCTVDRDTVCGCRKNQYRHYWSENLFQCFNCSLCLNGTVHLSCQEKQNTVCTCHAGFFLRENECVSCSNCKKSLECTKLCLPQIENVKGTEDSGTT
Test: yeast display SC50

apparent Kd (screen) [nM]	Binder
0.142	B1
4.83	B2
12.5	B3
0.653	B4
0.718	B5
12.5	B6
0.49	B7
20.2	B8
0.405	B9
0.539	B10
0.956	B11
6.43	B12
0.653	B13
5.31	B14
11.4	B15
0.956	B16
0.956	B17
0.142	B18
0.593	B19
0.718	B20

apparent Kd (screen) [nM]	Binder
0.49	B21
0.539	B22
0.593	B23
0.405	B24
2.73	B25
0.49	B26
0.79	B27
2.73	B28
0.539	B29
0.446	B30
0.49	B31
1.54	B32
0.405	B33
0.405	B34
0.79	B35
20.2	B36
0.49	B37
9.41	B38
0.368	B39
1.05	B40

apparent Kd (screen) [nM]	Binder
1.16	B41
0.718	B42
0.49	B43
26.9	B44
9.41	B45
0.956	B46
0.446	B47
1.16	B48
0.956	B49
1.54	B50
0.405	B51
1.27	B52
0.539	B53
2.48	B54
0.539	B55
0.653	B56
13.8	B57
6.43	B58
0.593	B59
